Laboratory results: patent US20220406376A1 (MacroGenics, published 2022)

Tests used:
[1] = molecular target: T1, CD137 on the surface of cells (activated human T cells; engineered CHO cells) (human, UniProt Q07011 24-255); test: flow cytometry on CD137-expressing CHO cells (CHO/137), anti-hFc APC MFI
T1 construct: whole, on cells; also called human CD137; cell surface expressed CD137

[2] = molecular target: T1, CD137 on the surface of cells …; test: flow cytometry on activated pan T cells gated CD8, anti-hFc APC MFI
[3] = molecular target: T1, CD137 on the surface of cells …; test: as above; remark: listed apart in the source
[4] = molecular target: T2, HER2/neu on the surface of target cells (N87, JIMT-1, MCF-7, MDA-MB231) (UniProt P04626 23-1255, limits assumed); test: flow cytometry on N87 gastric cancer cells, anti-hFc APC MFI
T2 construct: whole, on cells

[5] = molecular target: T1, CD137 on the surface of cells …; test: flow cytometry on activated CD8+ T cells (CD8 FITC), anti-hFc APC MFI
[6] = molecular target: T2, HER2/neu on the surface of target cells …; test: flow cytometry on N87 cells, anti-hFc APC MFI
Procedure: (§1) CD137×TA Binding Molecules, DART-B, DART-D, DART-G and the control molecules DART-3 and DART-6 were additionally evaluated for their ability to bind to HER2/neu expressed on N87 cells (FIG. 13A) and JIMT-1 cells (FIG. 13B). For such evaluation, 100 μL of HER2/neu expressing target cells (1.0×1⁰⁶ cells/mL) and 100 μL of serially diluted (5- or 10-fold dilutions) test article (bispecific diabody) were added to each well of microtiter assay plate(s), mixed and incubated at RT for 45 min. The cells were washed with FACS Buffer and secondary antibody (anti-human-Fc region-APC) was then added to each well; mixed and incubated at RT for 30 min. Cells were washed and resuspended in 100 μL FACS Buffer and analyzed by flow cytometry (BD LSR Fortessa or FACSCanto 11) for cell event collection. Data analysis were performed via FloJo v10.

[7] = molecular target: T3, extracellular portion of cynomolgus monkey CD137 fused to a histidine-containing peptide (cynomolgus monkey, UniProt A9YYE7 24-186); test: SPR (BIACORE); molecule captured on anti-human Fc; cynoCD137 6.25-100 nM; column head ×10^-4 applied as printed
T3 construct: extracellular domain; also called cynoCD137
T3 sequence: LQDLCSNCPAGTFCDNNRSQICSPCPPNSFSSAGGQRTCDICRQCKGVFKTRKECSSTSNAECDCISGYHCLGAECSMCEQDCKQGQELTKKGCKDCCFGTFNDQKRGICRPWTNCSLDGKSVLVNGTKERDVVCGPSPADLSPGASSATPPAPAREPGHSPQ
Procedure: (§2) The amino acid sequences of these clones were incorporated into the 5 chain diabody DART-G to yield optimized DART-G molecules (designated as DART-G1, DART-G2; DART-G3, and DART-G4). The binding affinity of DART-G2, DART-G3, and DART-G4 were evaluated via BIAcore (Table 11). For such evaluation, His-tagged soluble human CD137 (huCD137) or cynomolgus monkey CD137 (cynoCD137) (containing an extracellular portion of human or cynomolgus monkey CD137 fused to a histidine-containing peptide) was passed over a surface coated with immobilized antibody. Briefly, each test molecule was captured onto an F(ab)₂ goat-anti-human Fc-coated surface and then incubated in the presence of different concentrations (6.25-100 nM) of huCD137 or cynoCD137. The kinetics of binding were determined via BIACORE® analysis binding (normalized 1:1 Langmuir binding model).

[8] = molecular target: T4, extracellular portion of human CD137 fused to a histidine-containing peptide (human, UniProt Q07011 24-186); test: SPR (BIACORE); molecule captured on anti-human Fc; huCD137 6.25-100 nM; 1:1 Langmuir
T4 construct: extracellular domain; also called huCD137; His-tagged soluble human CD137
Procedure: as §2

[9] = molecular target: T2, HER2/neu on the surface of target cells …; test: flow cytometry on N87 gastric cancer cells, anti-hFc APC MFI; remark: listed apart in the source
[10] = molecular target: T3, extracellular portion of cynomolgus …; test: SPR (BIACORE); molecule captured on anti-human Fc; cynoCD137 6.25-100 nM; 1:1 Langmuir
Procedure: as §2

[11] = molecular target: T2, HER2/neu on the surface of target cells …; test: flow cytometry on JIMT-1 cells, anti-hFc APC MFI
Procedure: as §1

T1 sequence (Q07011 24-255, change not shown): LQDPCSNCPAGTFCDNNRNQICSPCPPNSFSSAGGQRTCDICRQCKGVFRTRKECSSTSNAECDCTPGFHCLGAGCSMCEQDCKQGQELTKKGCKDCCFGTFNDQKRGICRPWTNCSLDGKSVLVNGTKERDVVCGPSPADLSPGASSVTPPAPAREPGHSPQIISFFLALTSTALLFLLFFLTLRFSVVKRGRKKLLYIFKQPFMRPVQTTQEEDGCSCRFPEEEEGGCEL

B1: DART-D (bispecific antibody, human IgG1, kappa, L234A L235A)
heavy: QVQLVQSGAEVKKPGASVKVSCKASGYTFTNYGMNWVRQAPGQGLEWMGWINTNIGEPTYTEEFKGRVTMTRDTSISTAYMELSRLRSDDTAVYYCARDDGYGNRVSYWGQGTLVTVSSASTKGPSVFPLAPSSKSTSGGTAALGCLVKDYFPEPVTVSWNSGALTSGVHTFPAVLQSSGLYSLSSVVTVPSSSLGTQTYICNVNHKPSNTKVDKRVEPKSCDKTHTCPPCPAPEAAGGPSVFLFPPKPKDTLMISRTPEVTCVVVDVSHEDPEVKFNWYVDGVEVHNAKTKPREEQYNSTYRVVSVLTVLHQDWLNGKEYKCKVSNKALPAPIEKTISKAKGQPREPQVYTLPPSREEMTKNQVSLSCAVKGFYPSDIAVEWESNGQPENNYKTTPPVLDSDGSFFLVSKLTVDKSRWQQGNVFSCSVMHEALHNRYTQKSLSLSPGK
light: DIQMTQSPSSLSASVGDRVTITCKASQDISNYLSWFQQKPGKAPKTLIYRANRLQSGVPSRFSGSGSGTDFTLTISSLQPEDFATYYCLQHDEFPWTFGQGTKLEIKRTVAAPSVFIFPPSDEQLKSGTASVVCLLNNFYPREAKVQWKVDNALQSGNSQESVTEQDSKDSTYSLSSTLTLSKADYEKHKVYACEVTHQGLSSPVTKSFNRGEC
chain 1: QVQLVQSGAEVKKPGASVKVSCKASGYTFTNYGMNWVRQAPGQGLEWMGWINTNIGEPTYTEEFKGRVTMTRDTSISTAYMELSRLRSDDTAVYYCARDDGYGNRVSYWGQGTLVTVSSASTKGPSVFPLAPSSKSTSGGTAALGCLVKDYFPEPVTVSWNSGALTSGVHTFPAVLQSSGLYSLSSVVTVPSSSLGTQTYICNVNHKPSNTKVDKRVEPKSCDKTHTCPPCPAPEAAGGPSVFLFPPKPKDTLMISRTPEVTCVVVDVSHEDPEVKFNWYVDGVEVHNAKTKPREEQYNSTYRVVSVLTVLHQDWLNGKEYKCKVSNKALPAPIEKTISKAKGQPREPQVYTLPPSREEMTKNQVSLWCLVKGFYPSDIAVEWESNGQPENNYKTTPPVLDSDGSFFLYSKLTVDKSRWQQGNVFSCSVMHEALHNHYTQKSLSLSPGGGGSGGGSGGGDIQMTQTTSSLSASLGDRVTISCRPSQDISNYLNWYQQKPDGTVKLLIYYTSRLRSGVPSRFSGSGSGTDYSLTISNLEQEDIATYFCQQGDTLPYTFGGGTKLEIKGGGSGGGGQVQLQQPGAELVRPGASVKLSCKASGYTFTSYWINWVKQRPGQGLEWIGNIYPSDSYTNYNQKFKDKATLTVDKSSSTAYMQLSSPTSEDSAVYYCTRDYGSSYSFDYWGQGTTLTVSSGGCGGGEVAALEKEVAALEKEVAALEKEVAALEK
chain 2: DIQMTQTTSSLSASLGDRVTISCRPSQDISNYLNWYQQKPDGTVKLLIYYTSRLRSGVPSRFSGSGSGTDYSLTISNLEQEDIATYFCQQGDTLPYTFGGGTKLEIKGGGSGGGGQVQLQQPGAELVRPGASVKLSCKASGYTFTSYWINWVKQRPGQGLEWIGNIYPSDSYTNYNQKFKDKATLTVDKSSSTAYMQLSSPTSEDSAVYYCTRDYGSSYSFDYWGQGTTLTVSSGGCGGGKVAALKEKVAALKEKVAALKEKVAALKE
EC50 (read off the curve) [1]: ~0.02 µg/mL | EC50 (read off the curve) [2]: ~200 pM | EC50 (read off the curve) [3]: ~200 pM | EC50 (read off the curve) [4]: ~500 pM | EC50 (read off the curve) [5]: ~0.02 µg/mL | EC50 (read off the curve) [6]: ~0.07 µg/mL | koff [7]: 0.031 s⁻¹ | Kd [8]: 53000 pM | koff [8]: 0.025 s⁻¹ | kon [8]: 470000 M⁻¹ s⁻¹ | EC50 (read off the curve) [9]: ~500 pM | Kd [10]: 67000 pM | kon [10]: 460000 M⁻¹ s⁻¹ | EC50 (read off the curve) [11]: ~0.03 µg/mL
